Article PMC10696660

Target: AqpZ (UniProt P60844)
Experiment: native MS

stoichiometry N: 4
Substance: AqpZ (from UniProt P60844 1-231) (natural protein)
